To fix the notation:
B1: PIE-G3A (designed binder)
chain: QDSTSDLIPAPPLSKVPLQQNFQDNQFHGKWYVVGIAGNWILREDKDPPKMRATIYELKEDKSYNVTRVRFDEKKCGYGIATFVPGSQPGEFTLGVIKSRPGITSDLVRVVSTNYNQHAMVFFKFVKQNREYFGITLYGRTKELTSELKENFIRFSKSLGLPENHIVFPVPIDQCIDGSAWSHPQFEK
notes: Made in E. coli from phNGAL98 with a C-terminal Strep-tag II; also called Lcn2 mutein; not shown: C-terminal Strep-tag II
B2: PIE-G3E (designed binder)
chain: QDSTSDLIPAPPLSKVPLQQNFQDNQFHGKWYVVGSAGNHRLREDKDPRKMHATIYELKEDKSYNVTNVTFREKKCHYSIGTFVPGSQPGEFTLGKIKSNPGMTSFLVRVVSTNYNQHAMVFFKKVHQNREQFNITLYGRTKELTSELKENFIRFSKSLGLPENHIVFPVPIDQCIDGSAWSHPQFEK
notes: C-terminal Strep-tag II; also called Lcn2 mutein; not shown: C-terminal Strep-tag II
B3: PIE-G3B (designed binder)
chain: QDSTSDLIPAPPLSKVPLQQNFQDNQFHGKWYVVGVAGNAMLREDKDPLKMRATIYELKEDKSYNVTGVSFWRKKCHYKIGTFVPGSQPGEFTLGDIKSGPGQTSNLVRVVSTNYNQHAMVFFKEVRQNREWFAITLYGRTKELTSELKENFIRFSKSLGLPENHIVFPVPIDQCIDGSAWSHPQFEK
notes: as for B2
B4: PIE-G3D (designed binder)
chain: QDSTSDLIPAPPLSKVPLQQNFQDNQFHGKWYVVGMAGNARLREDKDPVKMTATIYELKEDKSYNVTAVQFRLKKCQYGITTFVPGSQPGEFTLGDIKSIPGLTSMLVRVVSTNYNQHAMVFFKRVRQNREFFDITLYGRTKELTSELKENFIRFSKSLGLPENHIVFPVPIDQCIDGSAWSHPQFEK
notes: as for B2
B5: PIE-G3H (designed binder)
chain: QDSTSDLIPAPPLSKVPLQQNFQDNQFHGKWYVVGIAGNYILREDKDPPKMRATIYELKEDKSYNVTRVFFSRKKCDYIIWTFVPGSQPGEFTLGFIKSNPGLTSLLVRVVSTNYNQHAMVFFKWVDQNREVFGITLYGRTKELTSELKENFIRFSKSLGLPENHIVFPVPIDQCIDGSAWSHPQFEK
notes: as for B2
B6: PIE-G3F (designed binder)
chain: QDSTSDLIPAPPLSKVPLQQNFQDNQFHGKWYVVGIAGNGQLREDKDPWKMSATIYELKEDKSYNVTSVRFRLKKCSYWIYTFVPGSQPGEFTLGGIKSNPGDTSNLVRVVSTNYNQHAMVFFKYVIQNREWFIITLYGRTKELTSELKENFIRFSKSLGLPENHIVFPVPIDQCIDGSAWSHPQFEK
notes: as for B2
B7: PIE-G3G (designed binder)
chain: QDSTSDLIPAPPLSKVPLQQNFQDNQFHGKWYVVGMAGNASLREDKDPRKMNATIYELKEDKSYNVTKVRFWHKKCYYSITTFVPGSQPGEFTLGDIKSYPGWTSYLVRVVSTNYNQHAMVFFKGVRQNREWFSITLYGRTKELTSELKENFIRFSKSLGLPENHIVFPVPIDQCIDGSAWSHPQFEK
notes: as for B2
B8: PIE-G3C (designed binder)
chain: QDSTSDLIPAPPLSKVPLQQNFQDNQFHGKWYVVGRAGNVALREDKDPPKMRATIYELKEDKSYNVTNVRFAMKKCMYSIGTFVPGSQPGEFTLGQIKSEPGNTSNLVRVVSTNYNQHAMVFFKEVYQNREIFFITLYGRTKELTSELKENFIRFSKSLGLPENHIVFPVPIDQCIDGSAWSHPQFEK
notes: as for B2

Where only a bound is given, the exact number is not on record here.

T3 sequence (Q8CFZ4 25-553 limits assumed): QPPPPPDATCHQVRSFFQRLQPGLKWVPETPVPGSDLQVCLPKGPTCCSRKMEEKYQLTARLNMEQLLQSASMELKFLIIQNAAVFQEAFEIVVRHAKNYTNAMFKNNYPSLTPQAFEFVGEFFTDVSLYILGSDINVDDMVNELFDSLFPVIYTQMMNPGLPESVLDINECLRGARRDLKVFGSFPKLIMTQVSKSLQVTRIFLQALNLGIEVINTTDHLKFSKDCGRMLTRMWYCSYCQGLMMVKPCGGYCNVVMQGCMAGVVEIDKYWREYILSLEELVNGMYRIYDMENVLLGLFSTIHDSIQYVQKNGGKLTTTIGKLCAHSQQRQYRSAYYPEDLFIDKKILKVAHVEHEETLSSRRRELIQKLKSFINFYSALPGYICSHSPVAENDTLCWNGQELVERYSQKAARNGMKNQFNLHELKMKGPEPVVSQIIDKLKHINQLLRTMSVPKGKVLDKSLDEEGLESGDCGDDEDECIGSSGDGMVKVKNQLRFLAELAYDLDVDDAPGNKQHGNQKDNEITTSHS

One assay concerns the target T1, cyno GPC3-SK-HEP1 (Macaca fascicularis, UniProt A0A2K5VK50).
T1 construct: cell-surface protein on transfected cells; also called cynomolgus GPC3; cyno GPC3 transfected SK-Hep1 cells
Put plainly: flow cytometry on SK-HEP1 cells stably transfected with cynomolgus GPC3, detection via rabbit anti-hNGAL antiserum and anti-rabbit IgG-PE. Here is the method:
(§1) Empty vector control cells were also obtained and analyzed in parallel. Detection of GPC3 was achieved using mouse anti-glypican 3 clone 1G12 monoclonal antibody (DCS).
(§2) In order to assess binding of muteins to the GPC3 on the cell surface, 200,000 cells in PBS/2% FCS were used in each binding reaction. Reactions were performed on ice in 30 μl for 2 h. Following two washing steps in PBS/2% FCS a secondary rabbit anti-hNGAL scaffold antiserum was employed for 30 min. followed another two wash steps. […] Measurements were performed on a FACSCalibur flow cytometer where 10,000 events were acquired for each sample. Geometric mean values were compiled in FlowJo (Treestar software) and fitted to a sigmoidal dose response model in the Prism 5 program (GraphPad) to obtain EC50 values.
In general, EC50 refers to the midpoint of the concentration-response curve. B1 displayed an EC50 of more than 100 nM.
Still for that read-out and setting: the value for B2 was 0.12 nM.
On the same count and under the same terms, the value for B3 was 1.1 nM; that for B4 was 0.7 nM.
With B5, the midpoint of the response, the EC50, lay at 98 nM.
On the same count and under the same terms, the result for B6 reads 3.2 nM; that for B7, 0.2 nM.
Same read-out and setting: the result for B8 reads 0.2 nM.

The target of another assay is T2, Recombinant human Glypican-3 (human, UniProt P51654 25-559, limits assumed, randomly biotinylated via Lysine residues (EZ-Link Sulfo-NHS-LC-LC-Biotin) where captured on Neutravidin; not biotinylated where used as competitor in solution).
T2 construct: Bought protein; The biotinylated and the non-biotinylated preparation are written as one molecule; also called GPC3; GPC-3
T2 sequence (P51654 25-559 limits assumed): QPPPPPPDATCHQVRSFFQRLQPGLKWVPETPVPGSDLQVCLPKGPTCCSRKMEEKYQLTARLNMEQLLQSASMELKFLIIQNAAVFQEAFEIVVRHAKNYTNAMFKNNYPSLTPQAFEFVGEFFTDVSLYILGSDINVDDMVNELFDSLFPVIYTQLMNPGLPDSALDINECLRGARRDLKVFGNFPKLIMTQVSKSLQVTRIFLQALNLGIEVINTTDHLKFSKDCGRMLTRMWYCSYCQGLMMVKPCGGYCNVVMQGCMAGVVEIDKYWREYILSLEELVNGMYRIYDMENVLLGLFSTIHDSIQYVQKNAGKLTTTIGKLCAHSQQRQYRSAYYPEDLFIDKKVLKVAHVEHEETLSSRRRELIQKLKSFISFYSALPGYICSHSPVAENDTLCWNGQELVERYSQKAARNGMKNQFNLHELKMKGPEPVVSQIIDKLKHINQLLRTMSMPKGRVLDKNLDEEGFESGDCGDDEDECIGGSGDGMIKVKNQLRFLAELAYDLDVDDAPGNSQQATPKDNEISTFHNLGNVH
Put plainly: SPR (Biacore T100), Glypican-3 amine-coupled to a CM5 chip, mutein as analyte, evaluated conc 40/120 nM, 1:1 model. Here is the method: (§3) Real time analysis of the binding of the Lcn2 muteins to Glypican-3 was performed on a Biacore T100 system (GE Healthcare Bio-Sciences AB, Uppsala, Sweden) using HBS-EP+ (BR-1006-69, GE Healthcare Bio-Sciences AB, Uppsala, Sweden) as running buffer. A 10 μg/mL solution of Glypican-3 in 10 mM sodium acetate pH 4.5 was immobilized onto a CM5 chip (GE Healthcare Bio-Sciences AB, Uppsala, Sweden) using standard amine coupling chemistry, resulting in a ligand density of 467 RU. The purified Lcn2 muteins were applied in concentrations of 40 nM and 120 nM at a flow rate of 30 μL/min. The dilutions were injected with association times of 120 sec and dissociation times of 420 sec to obtain ka and kd information. Regeneration of the ligand was achieved by injecting either 6 M Guanidinium-HCl (120 sec/300 sec) or 3 M MgCl2 (900 sec) with a flow rate of 10 μL/min. Injection of regeneration solutions was followed by an extra wash step with running buffer and a stabilization period of 180 sec.
(§4) The data were double-referenced by subtraction of the corresponding signals measured for the control channel, which had been activated and blocked with ethanolamine and by substraction of buffer injections from the binding responses. ka and kd for the binding reaction were determined using Biacore T100 Evaluation Software V2.0.1 for data processing and kinetic fitting. The data were globally fit with 1:1 binding model.
Usually Kd stands for the free concentration of one partner at which half of the binding sites on the other are occupied at equilibrium, for simple one-to-one binding. By koff is commonly meant the rate constant with which the complex falls apart. As usually defined, the kon is the second-order rate constant of association. As for B1, the Kd was 3.78 nM, the koff was determined as 0.000603 s⁻¹ and the kon was found to be 160000 M⁻¹ s⁻¹.
Taken in the same sequence, the figures for B2 were 0.35 nM, 0.00178 s⁻¹ and 5.11e+06 M⁻¹ s⁻¹.
On to B3, for which the Kd was 0.55 nM, the koff stood at 0.000242 s⁻¹ and the kon is 438000 M⁻¹ s⁻¹.
As for B4, the Kd stood at 1.4 nM, the koff was determined as 0.00109 s⁻¹ and the kon is 781000 M⁻¹ s⁻¹.
Taken in the same sequence, the figures for B6 were 3.13 nM, 0.00128 s⁻¹ and 409000 M⁻¹ s⁻¹.
For B7 the same measures were 0.51 nM, 0.000723 s⁻¹ and 1.42e+06 M⁻¹ s⁻¹.
Taken in the same sequence, the figures for B8 were 1.21 nM, 0.00238 s⁻¹ and 1.97e+06 M⁻¹ s⁻¹.

The target in another assay is T2, Recombinant human Glypican-3. The assay is described as follows: flow cytometry on SK-HEP1 cells stably transfected with human GPC3, detection via rabbit anti-hNGAL antiserum and anti-rabbit IgG-PE. Here is the method:
as §1, §2
Turning to B1, the EC50 was more than 100 nM.
Still for that read-out and setting: the result for B2 reads 0.4 nM; that for B3, 2.5 nM; that for B4, 1 nM.
Still for that read-out and setting: the result for B5 reads 49 nM; that for B6, 4.7 nM.
On the same count and under the same terms, the result for B7 reads 0.7 nM; that for B8, 0.5 nM.

For a further assay the target is unchanged. The assay is described as follows: competition ELISA: constant mutein pre-incubated with a dilution series of non-biotinylated human Glypican-3, free mutein detected on plate-captured biotinylated human Glypican-3. On the procedure:
The binding affinity of the Lcn2 muteins to non-modified Glypican-3 in solution was evaluated in a competition ELISA approach. Therefore, a constant concentration of 1 μg/ml biotinylated human Glypican-3 (R&D Systems) was captured on the surface of a polystyrol plate (Greiner, GE) via Neutravidin (Thermo Scientific, 5 μg/ml, GE). In parallel a two step dilution series of non-biotinylated human Glypican-3 starting from 1.5 μM was incubated with a constant concentration of GPC3-specific mutein for 1 h at room temperature in a non-protein binding 96 well polypropylene plate (Nunc, GE). The constant concentration of lipocalin muteins corresponds to the EC₅₀ of the respective muteins as determined in a direct ELISA as described above in this example. In the following the mixture of non-modified human GPC3 and lipocalin mutein was transferred onto the GPC3-captured Neutravidin plate. The biotinylated GPC3 was allowed to compete with the non-modified GPC3 for Anticalin binding for 1 h at room temperature. During these 1 h, free lipcocalin mutein was bound to the captured GPC3 and detected via a rabbit anti-strep-tag II polyconal antibody (GenScript, USA). A goat anti-rabbit IgG-HRP conjugate (Abcam, UK) was employed as secondary detection antibody. Parallel to the competition assay, anticalin binding was determined on the same plate in a “direct” ELISA, in order to obtain a standard curve linking the RFU values to anticalin concentration. This curve was then used to standardize competition data to the level of anticalins bounds to the plate and fitted with Graphpad software. IC₅₀ values correspond to the half-maximum amount of lipocalin mutein bound to the plate.
Usually IC50 stands for the point on the concentration scale where inhibition reaches its midpoint. Consider B1, for which the IC50 came out at 0.6 nM.
The same measure, in the same setting: the value for B2 was 0.1 nM; that for B3 was 0.2 nM; that for B4 was 0.7 nM.
Consider B5, for which the IC50 turned out to be 0.23 nM.
On the same count and under the same terms, the value for B6 was 0.07 nM; that for B7 was 0.1 nM; that for B8 was 1 nM.

A further assay shares this target. Put plainly: direct ELISA; biotinylated human Glypican-3 (1 ug/ml) captured via Neutravidin, dilution series of purified mutein. On the procedure:
A “direct” ELISA was performed to verify the binding affinity and specificity of the selected Lcn2 muteins. Therefore, a constant concentration of 1 μg/ml biotinylated human Glypican 3 (R&D Systems) was captured on the surface of a polystyrol plate (Greiner, GE) via BSA blocked Neutravidin (Thermo Scientific, 5 μg/ml). Two step dilution series of purified Lcn2 muteins were incubated with the captured GPC-3 for 1 h at room temperature and detected either via the Strep-tag II using a rabbit anti-strep-tag II polyconal antibody (GenScript, USA) or by using a scaffold-specific polyclonal rabbit antibody. In both cases an anti rabbit IgG-HRP conjugate (Abcam, UK) was employed as secondary detection antibody.
The absorption ΔA at […] was measured in an ELISA reader (Tecan, GE) and the data were fitted with Graphpad Prism software (Statcom, USA).
On the technique in general: An ELISA detects its analyte on a solid surface through an enzyme-linked reagent.
As to B1, the Kd is 7.6 nM.
Regarding B2, the Kd turned out to be 0.2 nM.
The same measure, in the same setting: the result for B3 reads 0.27 nM.
The same measure, in the same setting: the value for B4 was 0.46 nM; that for B5 was 0.3 nM.
The same measure, in the same setting: the result for B6 reads 0.35 nM; that for B7, 0.27 nM; that for B8, 0.32 nM.

A further assay concerns the target T3, mouse GPC3-SK-HEP1 (mouse, UniProt Q8CFZ4).
T3 construct: cell-surface protein on transfected cells; also called mouse GPC3 transfected SK-Hep1 cells
The assay is described as follows: flow cytometry on SK-HEP1 cells stably transfected with mouse GPC3, detection via rabbit anti-hNGAL antiserum and anti-rabbit IgG-PE. Here is the method: as §1, §2
On the technique in general: A flow cytometer gives signals particle by particle.
Take B2: the EC50 is 2.7 nM.
The same measure, in the same setting: the result for B3 reads 2.9 nM; that for B4, 10.5 nM.
Same read-out and setting: the value for B5 was 580 nM; that for B6 was 18.7 nM; that for B7 was 4.3 nM.
Same read-out and setting: the result for B8 reads 3.5 nM.

For a further assay, the target named is T2, Recombinant human Glypican-3. Put plainly: SPR (Biacore T100), Glypican-3 amine-coupled to a CM5 chip, mutein as analyte, evaluated conc 120 nM, 1:1 model. On the procedure:
as §3, §4
A general note: In SPR one partner is held on a chip, and binding of the other changes the refractive index at the surface.
In the case of B5, the Kd is 1.07 nM, the koff turned out to be 0.000209 s⁻¹ and the kon amounted to 195000 M⁻¹ s⁻¹.

For the origin of these results see patent US20130296258A1 (Pieris, published 2013).
